{
  "source": "paper PMC10349855",
  "about": "“Structural basis for specific RNA recognition by the alternative splicing factor RBM5”",
  "key": {"[1]": {"molecular_target": "T1, RBM5 RRM1-ZnF1S (human, UniProt P52756 94-210, C191G)", "T1 sequence": "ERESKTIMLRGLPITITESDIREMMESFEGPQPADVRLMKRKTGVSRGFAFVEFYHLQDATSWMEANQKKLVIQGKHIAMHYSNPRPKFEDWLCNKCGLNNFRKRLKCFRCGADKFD", "test": "X-ray crystallography; Zn2+; 3.5 A; ITC: 20 mM MES pH 6.5, 100 mM NaCl, 2 mM BME, 25 C; NMR: 20 mM MES pH 6.5, 100 mM (single RRMs) or 400 mM (multidomain) NaCl, 1 mM DTT, 298 K", "details": "protein: recombinant"}, "[2]": {"molecular_target": "T2, RBM5 RRM1-ZnF1S (Homo sapiens, UniProt P52756 94-210, I107T;C191G)", "T2 sequence": "T1 sequence with I14T", "test": "ITC; Zn; 20 mM MES pH 6.5, 100 mM NaCl, 2 mM 2-mercaptoethanol, 25 C; protein 10-30 uM in the cell; one-site fit", "details": "tags: none; N-terminal Met-Gly from the NcoI site (left out)"}, "[3]": {"molecular_target": "T1, RBM5 RRM1-ZnF1S", "test": "ITC; N about 0.6; Discussion prints 6 uM but also 2.4-fold weaker than 263 nM; ITC: 20 mM MES pH 6.5, 100 mM NaCl, 2 mM BME, 25 C; NMR: 20 mM MES pH 6.5, 100 mM (single RRMs) or 400 mM (multidomain) NaCl, 1 mM DTT, 298 K", "details": "protein: recombinant"}, "[4]": {"molecular_target": "T3, RBM5 RRM1 F142A/F144A (human, UniProt P52756 94-184, F142A;F144A)", "T3 sequence": "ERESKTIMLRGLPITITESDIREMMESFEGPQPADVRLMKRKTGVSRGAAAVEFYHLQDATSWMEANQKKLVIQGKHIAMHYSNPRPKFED", "test": "NMR; 20 mM MES pH 6.5, 100 mM NaCl, 1 mM DTT, 25 C; protein 0.1-0.2 mM", "details": "tags: His-thioredoxin, TEV-cleaved (scar left out)"}, "[5]": {"molecular_target": "T4, RBM5 RRM1 (human, UniProt P52756 94-184)", "T4 sequence": "T3 sequence with A49F, A51F", "test": "ITC; 20 mM MES pH 6.5, 100 mM NaCl, 2 mM 2-mercaptoethanol, 25 C; protein 10-30 uM in the cell; one-site fit", "details": "tags: His-thioredoxin, TEV-cleaved (scar left out)"}, "[6]": {"molecular_target": "T5, RBM5 RRM1-ZnF1 wt (Homo sapiens, UniProt P52756 94-210, I107T)", "T5 sequence": "T1 sequence with I14T, G98C", "test": "ITC; Zn; 20 mM MES pH 6.5, 100 mM NaCl, 2 mM 2-mercaptoethanol, 25 C; protein 10-30 uM in the cell; one-site fit", "details": "tags: none; N-terminal Met-Gly from the NcoI site (left out)"}, "[7]": {"molecular_target": "T6, RBM5 RRM1-ZnF1 wt (human, UniProt P52756 94-210)", "T6 sequence": "T1 sequence with G98C", "test": "ITC; ITC: 20 mM MES pH 6.5, 100 mM NaCl, 2 mM BME, 25 C; NMR: 20 mM MES pH 6.5, 100 mM (single RRMs) or 400 mM (multidomain) NaCl, 1 mM DTT, 298 K", "details": "protein: recombinant"}, "[8]": {"molecular_target": "T7, RBM5 RRM1-ZnF1 F142/144A (Homo sapiens, UniProt P52756 94-210, I107T;F142A;F144A)", "T7 sequence": "T1 sequence with I14T, F49A, F51A, G98C", "test": "ITC; Zn; 20 mM MES pH 6.5, 100 mM NaCl, 2 mM 2-mercaptoethanol, 25 C; protein 10-30 uM in the cell; one-site fit", "details": "tags: none; N-terminal Met-Gly from the NcoI site (left out)"}, "[9]": {"molecular_target": "T8, RBM5 RRM1-ZnF1 R198E (Homo sapiens, UniProt P52756 94-210, I107T;R198E)", "T8 sequence": "T1 sequence with I14T, G98C, R105E", "test": "ITC; Zn; 20 mM MES pH 6.5, 100 mM NaCl, 2 mM 2-mercaptoethanol, 25 C; protein 10-30 uM in the cell; one-site fit", "details": "tags: none; N-terminal Met-Gly from the NcoI site (left out)"}, "[10]": {"molecular_target": "T9, RBM5 RRM1-ZnF1 F202A (Homo sapiens, UniProt P52756 94-210, I107T;F202A)", "T9 sequence": "T1 sequence with I14T, G98C, F109A", "test": "ITC; Zn; 20 mM MES pH 6.5, 100 mM NaCl, 2 mM 2-mercaptoethanol, 25 C; protein 10-30 uM in the cell; one-site fit", "details": "tags: none; N-terminal Met-Gly from the NcoI site (left out)"}, "[11]": {"molecular_target": "T10, RBM5 RRM1-ZnF1S-RRM2 (human, UniProt P52756 94-315, C191G)", "T10 sequence": "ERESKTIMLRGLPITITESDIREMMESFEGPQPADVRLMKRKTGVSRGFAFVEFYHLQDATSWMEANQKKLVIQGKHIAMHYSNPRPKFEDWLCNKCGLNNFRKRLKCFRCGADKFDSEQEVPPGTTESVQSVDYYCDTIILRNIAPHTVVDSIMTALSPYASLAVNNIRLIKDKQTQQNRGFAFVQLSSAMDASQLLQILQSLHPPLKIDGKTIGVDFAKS", "test": "ITC; Zn; 20 mM MES pH 6.5, 100 mM NaCl, 2 mM 2-mercaptoethanol, 25 C; protein 10-30 uM in the cell; one-site fit", "details": "tags: His-thioredoxin, TEV-cleaved (scar left out)"}, "[12]": {"molecular_target": "T11, RBM5 RRM1-ZnF1 F142A/F144A (human, UniProt P52756 94-210, F142A;F144A)", "T11 sequence": "T1 sequence with F49A, F51A, G98C", "test": "ITC; ITC: 20 mM MES pH 6.5, 100 mM NaCl, 2 mM BME, 25 C; NMR: 20 mM MES pH 6.5, 100 mM (single RRMs) or 400 mM (multidomain) NaCl, 1 mM DTT, 298 K", "details": "protein: recombinant"}, "[13]": {"molecular_target": "T1, RBM5 RRM1-ZnF1S", "test": "ITC; ITC: 20 mM MES pH 6.5, 100 mM NaCl, 2 mM BME, 25 C; NMR: 20 mM MES pH 6.5, 100 mM (single RRMs) or 400 mM (multidomain) NaCl, 1 mM DTT, 298 K", "details": "protein: recombinant"}, "[14]": {"molecular_target": "T12, RBM5 RRM1-ZnF1 F202A (human, UniProt P52756 94-210, F202A)", "T12 sequence": "T1 sequence with G98C, F109A", "test": "ITC; ITC: 20 mM MES pH 6.5, 100 mM NaCl, 2 mM BME, 25 C; NMR: 20 mM MES pH 6.5, 100 mM (single RRMs) or 400 mM (multidomain) NaCl, 1 mM DTT, 298 K", "details": "protein: recombinant"}, "[15]": {"molecular_target": "T13, RBM5 RRM1-ZnF1 R198E (human, UniProt P52756 94-210, R198E)", "T13 sequence": "T1 sequence with G98C, R105E", "test": "ITC; ITC: 20 mM MES pH 6.5, 100 mM NaCl, 2 mM BME, 25 C; NMR: 20 mM MES pH 6.5, 100 mM (single RRMs) or 400 mM (multidomain) NaCl, 1 mM DTT, 298 K", "details": "protein: recombinant"}, "[16]": {"molecular_target": "T14, RBM5 RRM2 (human, UniProt P52756 231-315)", "T14 sequence": "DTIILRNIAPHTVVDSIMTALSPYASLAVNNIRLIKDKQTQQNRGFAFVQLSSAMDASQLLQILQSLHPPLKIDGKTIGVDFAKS", "test": "ITC; average of two; ITC: 20 mM MES pH 6.5, 100 mM NaCl, 2 mM BME, 25 C; NMR: 20 mM MES pH 6.5, 100 mM (single RRMs) or 400 mM (multidomain) NaCl, 1 mM DTT, 298 K", "details": "protein: recombinant; tags: His-Trx tag, TEV cleaved"}, "[17]": {"molecular_target": "T6, RBM5 RRM1-ZnF1 wt", "test": "ITC; average of two; text 153 nM; ITC: 20 mM MES pH 6.5, 100 mM NaCl, 2 mM BME, 25 C; NMR: 20 mM MES pH 6.5, 100 mM (single RRMs) or 400 mM (multidomain) NaCl, 1 mM DTT, 298 K", "details": "protein: recombinant"}},
  "note": "Numbering of substitutions follows the chain as printed.",
  "data": [
    {"binder": "UGGCUCUUCU (ssRNA)", "note": "[GGCU_10]", "values": [
      {"measurement": "binding result", "setting": "[1]", "result": "binds"}
    ]},
    {"binder": "ACUUGGCUCUUCUCU (ssRNA)", "note": "[eGGCU_12]", "values": [
      {"measurement": "Kd", "setting": "[2]", "result": "641 ± 125", "unit": "nM"},
      {"measurement": "Kd", "setting": "[3]", "result": "641 ± 125", "unit": "nM"}
    ]},
    {"binder": "UCUCUUCUC (ssRNA)", "note": "[CU_9]", "values": [
      {"measurement": "binding result", "setting": "[4]", "result": "no binding"},
      {"measurement": "Kd", "setting": "[5]", "result": "19700 ± 6500", "unit": "nM"},
      {"measurement": "Kd", "setting": "[6]", "result": "5560 ± 2830", "unit": "nM"},
      {"measurement": "Kd", "setting": "[7]", "result": 6000, "unit": "nM"}
    ]},
    {"binder": "UGGCUCUUCUCU (ssRNA)", "note": "[GGCU_12]", "values": [
      {"measurement": "Kd", "setting": "[5]", "result": "1880 ± 950", "unit": "nM"},
      {"measurement": "Kd", "setting": "[2]", "result": "263 ± 27", "unit": "nM"},
      {"measurement": "Kd", "setting": "[8]", "result": "448 ± 36", "unit": "nM"},
      {"measurement": "Kd", "setting": "[6]", "result": "153 ± 69", "unit": "nM"},
      {"measurement": "Kd", "setting": "[9]", "result": "2660 ± 380", "unit": "nM"},
      {"measurement": "Kd", "setting": "[10]", "result": "379 ± 41", "unit": "nM"},
      {"measurement": "Kd", "setting": "[11]", "result": "133 ± 12", "unit": "nM"},
      {"measurement": "Kd", "setting": "[12]", "result": 448, "unit": "nM"},
      {"measurement": "Kd", "setting": "[13]", "result": "263 ± 27", "unit": "nM"},
      {"measurement": "Kd", "setting": "[14]", "result": 379, "unit": "nM"},
      {"measurement": "Kd", "setting": "[15]", "result": 2700, "unit": "nM"},
      {"measurement": "Kd", "setting": "[16]", "result": 173000, "unit": "nM"},
      {"measurement": "Kd", "setting": "[17]", "result": 153, "unit": "nM"}
    ]}
  ]
}
